Laboratory results reported in the nanobody polyreactivity screen of Harvey et al. (2022).

Assay: yeast display, Sf9 membrane polyspecificity reagent, FACS + sequencing; frameworks hold sequencing errors
Method in brief: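 In a synthetic yeast display library (Saccharomyces cerevisiae BJ5465), nanobody expression was induced with galactose for 36–48 hours. FACS gates were set low and high (top ~1%) using anti-HA fluorescence for expression and streptavidin fluorescence for binding of the Sf9 membrane reagent. Each polyreactivity label is drawn from the gate of origin.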

Sequence | polyreactivity (PSR sort gate)
QVQLVESGGGLVQAGGSLRLSCAASGSIFLYNTMGWYRQAPGKERELVAAITSGGNTNYADSVKGRFTISRDNAKNTVYLQMNSLKPEDTAVYYCNVDLKAWLPDGGSVDYWGQGTQVTVSS | low polyreactivity
QVQLVESGGGLVQAGGSLRLSCAASGSIFDLNAMGWYRQAPGKERELVAAISKSGGSTYYADSVKGRFTISRDNAKHTVYLQMNSLKPEDTAVYYCAARYHYPGNWYNYWGQGTQVTVSS | low polyreactivity
QDQLVESGGGIVQAGGSLRLSCAASGRTFYRYAMGWYRQAPGKERELVATISGGGSTNYADSVKGRFTISRDNAKNTVYFQMNSLKPEDTAVYYCAVRLRPPYYLPYYYWGQGTQVTVSS | high polyreactivity
QVQLVESGGGLVHAGGSLRLSCAASGSIFTVNAMGWYRQAPGKERELVAAIDGSSGSTNYADSEKGRFTISRDNAKNTVYLQMNSLKPEDTAVYYCAADWSYEYGYWGQGTQVTVSS | low polyreactivity
QVQLVESGGGLVQAGGSLRLSCAASGSISDSYAMGWYRQAPGKERELVAAITSGDSTYYADSVKGRFTISRDNAKNTVYLQMNSLKPEDTAFYYCAKRVSRVRGYGFTDWSEYDYWGQGTQVTVSS | low polyreactivity
QVQLVESGGGLVQAGGSLRLSCAASGITFLYYAMGGYRQAPGKERELVAAITSGGSTYYADSVKGRFTISRDNAKNTVYLQMNSLKPEDTAVYYCAAGTYDGGYHYDYWGEGTQVTVSS | high polyreactivity
QVQLVESGGGLVQAGGSLRFSCAASGSTFKAYAMGWYRQAPGKERDLVARITYSGDITYYADSVKGRFTISRDNAKNTVYVQMNSLKRDDTAVFYCNDGFFVLEYDYWGQGTQLTVSS | low polyreactivity
QVQLVESGGGLVQAGGSLRLSCAASGRIFRFYAMGWYRQAPGKETELVATINSGVGRTYYADSVKGRFTISRDNAKNTVYLQFNSLKPEDTAVYYCAAEKRSYPQSYYYWGQGTQVTVSS | high polyreactivity
QVQLVESGGGLVQAGGSLRLSCAASGRTFRRSAMGWYRQAPGKEREFVAAISVSGDSTYADSVKGRFTISRDNAKNTVYLQMNSLKPEDTAVYYCAAVYWYCGWKVDYWGQGTQVTLSS | low polyreactivity
QVQLVESGGGLVQAGGSLRLSCAASGRIFYLNVMGWYRQAPGKERELVAAITRRDVTTYADSVKGRFTISRDNAKNTVYLEMNSLKPEDTAVYYCNAVYYNWIGFDYWGQGTQVTVSS | low polyreactivity
KVQLVESGGGLVQAGGSLRLSCAASGFIFGAYAMGWYRQAPGKERELVPSITWRGGSTYYADSVKGRFTISRDNAKNTVYLQMNSLKPEDTAVYYCAARVYLYNWQYFAYRAVDYWGQGTQVTVSS | high polyreactivity
QVQLVESGGGLVQAGRSLRLSCAASGITLVRNAMGWSRQAPGKEMELVAAISSNGDNTYYADSVKGRFTISSDNAKNTVYLQMNSLKPEDTAVYYCAVGGPVIWWGPKYDYWGQGTQVTVSS | high polyreactivity
QVQLVESGGGLVQAGGSLRLSCAASGRIFYKYAMGWYRQAPGKERELVAAISYSGGSTYYADSVKGRFTISRDNAKNTVYLQMKSLKPEDTAVYYCNAKPPYGVRSWGDYWGQGTQVTVSS | low polyreactivity
QVQLVESGGGLVQGGGSLRLSCDASGFIFPAYARGWYRQAPGKEREWVAAISKSGGRTYYADSVKGRFTISRDNAKNPVYLQMNRLKPEDTAVNYCPARLYNYDTSSSFDYWGQGTQVNVSS | high polyreactivity
QVQLVESGGGLVQAGGSLRLSCAASGSTFDVYAMGWYRQAPGKERELVAAISFSSGSTYYADSVKGRFTISRDNAKNTVYLQMNSLKPEDTAVYYCAARTYRYPYWGYDYWGQGTQVTVSS | high polyreactivity
QVQLVESGGGLVQAGGSLRLSCAASGFTFVSNAMGWYRQAPGKEREMVADITSDGSTNYADSVKGRFTISRDNAKNTVSLQMNSLKPEDTAVYYCNADASYGFWSLLHYDYWGQATQVTVSS | low polyreactivity
QVQLVESGGCLVQAGCSLRLSCAASGSTFYSYAMGWYRQAPGKERELVAAINWDGVSTYYADSVKGRFTISRDNAKNTVYLQMNSMKPEDTAVYFCAAELFYGYRISGTYYYWGQGTQVTVSS | low polyreactivity
QVQLVESGGGLVQAGGSLRLSCAASGYTFAANAMGWYRQSPGKERELVAAITSGGGSTYYADSVKGRFTISRDNAKNTVYLKMNSLNPEDTAVDYCAALQSHGVDFDNWGQGTQVTVSS | low polyreactivity
QYQLEDSGGGVVQAGCSLRLSCAASGRTFAYYAMGWYRQAPGKERELVAAISSSGGRTYYADSVKGRFTISRDNAKKTVYLQMNSLIPEDTAVYYCAATSTSGVLYDYWGQGTQVTVSS | high polyreactivity
QVHLVESGGGLVQAGGSLRLSCADSGFIFWSYVMGWNRQAPGKESELVAAIDYSGASTYYADSVKGRFTISRDNAKNTVSLQMNSLKPEDTAVYYCNAVAYYPYGYDYWGQGTQVTVSS | low polyreactivity
QVQLVESGGGLVQAGGSLRLSCAASGGTIYDNTMGWYRQAPGKERELVAAISRDGSTNYADSVKGRFTISRDNAKNTVYLQMNSLKPEDTAVYYCNKDPVSEYRSPGFPVTYDYWGQGTQVTVSS | low polyreactivity
QVQLVESGGGLGQAGGSLRLSCAASGYTFAGYAMGWYRPAPGKETELVAAISQSGGRTNYADSVKGRFTISRDNSKNTVYLQMNSLKPADTAVYYCAAEETSYTSEYWGQGTQVTVSS | high polyreactivity

Sequence | polyreactivity (PSR sort gate)
QVQLVESGGGLVQAGRSLRLSCAASGSTFSVNAMGWYRQAPGKERELVAAIPSGGNTYADSVKGRFTISRDNAKNTVYLQMNSLKPEDTAVYYCAVDNRDLFFYPGGFDYWGQGTQVTVSS | low polyreactivity
QVQLVESGGGLVQAGGSLRFSCAASGRTSRYYAMRWYRQAPGKERELVAGISTGGSTYYADSVKGRFTISRDNAKNTVYLQMKSLKPEDTAVYYCAAKYTRTNYYYWYYRMDFWGQGTQVTVSS | low polyreactivity
QVQLVESGGGLVQAGGSLRLSCAASGFIFAQNTMGWYRQAPGKERELVAAITRRGGSTYYADSVKGRFTISRDNAKNTVYLQMNSLKPEDTAVYYCNVAFRSYYTSSLLDYWGQGTQVTVSS | high polyreactivity
QVQLVESGGGLVQAGGSLRLSCAGSGRSFVYNAMGWYRQAPGQDRELVAAITSGGRTYYADSVKGRFTISRDNAKNTVYLQINSLKPEDTAVYDCAKRFWFNTYAAHPAGFDYWGQGTQVTVSS | low polyreactivity
QVQLVESGGGLVQAGGSLRLSCAASGRTFYVYDMGWYRQAPGKERELVAAISNICTRTYYADSVKGRFTISRDNAKNTVYLQMNSLKPEVTAVYYCATGRSRVYKGRGDYWGQGTHVTVSS | high polyreactivity
QVQLVESGGGLVQAGGSLSLSCAASGRTFANYAMGWYRHAPGKETEFVAVITYSGGNTYYADSVKGRFTISRDNAKNTVYLQMNSLKPEDTAVYYCAKGRPYRNGLYYYWGQGTQVTVSS | high polyreactivity
QVQLQESGGGLVQAGGRLPMSFAASGNIFDADIMGWYRQAPGKERELVASITDGRRTNYADSVKGRYTTSRDSEKNTVYLQMNSLKPEDTAVYYCAAIAYPVVPTYFDYDSDYFHWGQGTQVTVSS | high polyreactivity
QVQLVESGGGLVQAGGSLRLSCAASGFTFVNYARGWYRQAPGKERELVAAIRRSGSRTYYADSVKGRFTISRDNAKNTVYLQMHSLKPEDTAVYYCAAVWYRLYGYWGQGTQVTVSS | low polyreactivity
QVQLVESGGGLVQAGGSLRLSCAASDAMGWYRQAPGKERELVASISNGVSTNYADSVKGRFTISRDNAKNTVYLQMNSLKPEDTAVYYCAADAKTVGRDDLYWYEVEFDYWGQGTQVTVSS | low polyreactivity
QVQLEDSGGGLVQAGGSLRLSCAASGATFDGYTMAWYRQAPGKERELVAAISWRGTSTYYADSVKGRFTISRDNAKNTVYLQMNSLKPDDTAVYYCAADAYSGYDYWGQGTQVNVSS | low polyreactivity
QVQLVESGGGLVQAGGSLRLSCAASGYIFSGYAMGWYRQAPGKERELVAAISSNGGSTYYADSVKGRFTISRDNAKNTVYLQMISLKPEDTAVYYCNRGLAARVGRGDYWGQGTQVTVSS | low polyreactivity
QVQLEESGGGLVQAGGSLRLSCAASGRLFYSNPMGWYREAPGKEREVVAAISSGASTYYADSVKGRFTISRDNAKNTVYLQMNSLKPEDTAVYYCAVYRPSSYDYGYWGQGTQVTVSS | low polyreactivity
QVQLVDSAGGLVQAGGSLRLICAASGYTQIKNAMGVSRHAPGKERELVAAISSGGSTKYADSVKGRFTISRDNAKNTVYLQMNSLKPEDTAVYYCAKGRVVPYRRYTRIHMYHWGLGTQVTVSS | high polyreactivity
QVQLVESGGGLVQAGGSLRLSCAASGRSFQDNAMGWYRQAPGKERELVAAISWRGGSTNYADSVKGRFTISRDNAKNTVYLQMNSLKPEDTAVYYCAKGIRRWYGGSDYWGQGTQVNVSS | low polyreactivity
QVQLVESGGGLVQAGGSLRLSCAASGYIFRYNAMGWYRQAPGTEREFVASINWSGGRTYYADSVKGRFTLSRDNAKNTVYLQMNSLKPEDTAVYYCAAVYYVSLVYGYYVEGSYEYYYWGQGTQVTVSS | high polyreactivity
QVQLVESGGGLVQAGGSLRLSCAASGRIFVRYTMGWYRQAPGKERELVARITSGGSTNYADSVKGRFTISRDNAKNTVYLQMNSLKPEDTAVYYCAKSYGPRFGYWGQGTQVTVSS | low polyreactivity
QVQLVESGGGLVQAGGSLRLSCAASGSIFYPYAMGWSSKAPRKERELVARISSAGGTYYADSVKGRFTISRDNAKNTVYLQMNSLKPEDTAVYYCAAQARYRYYYWGQGTQVTVSS | high polyreactivity
QVQLVESGGGLVQAGGSLRLSCAASGRTLNYNVLGWYRQAPGKERELVASITSRGGSTRYADSVKGRFTISRDHAKNTVYLQMNSLKPEDTAGYYCAARYTTARSSYDYWGQGTQVTVSS | high polyreactivity
QVQLVESGGGLVLAGGILRLSCAASGSTFKRYAMGWYRQAPGKVRELVAAITWRGGSTYYADSVKGRFTISRDNAKNTVYLQMNSLKPEDTAVYYCAARANYFGWPKSYYYWGQGTQVTVSS | high polyreactivity
QVQLVETGGGLVQAGGSLRLSCAASGRIFPFYAMGWYRQAPGKERELVAAISWNGGSTFYADSVKGRFTISRDNAKNTVYLQMHSLKPEDTAVYYCNADFRPAYTYDYWGQGTQVTVSS | low polyreactivity
QVQLEESGGGLVQAGGSLRLSCAASGFTFFQYAMGWYRQAPGKERELVAAITSGVSTNYADSVKGRFTISRDNAKNTVYVQMNSLKPEDTAVYYCAADPRSLQSWRGEFAGEYWGQGTQVTVSS | low polyreactivity
